Legend:
[1] = carboxylate reductase activity, adipate semialdehyde to hexanedial; assay type: biochemical; conditions: purified enzyme with sfp phosphopantetheine transferase, 2 mM adipate semialdehyde, pH 7.5, room temperature, 20 min
Procedure: The N-terminal His-tagged carboxylate reductase of SEQ ID NO 6 (see Example 2 and FIG. 6) was assayed using adipate semialdehyde as substrate. The enzyme activity assay was performed in triplicate in a buffer composed of a final concentration of 50 mM HEPES buffer (pH=7.5), 2 mM adipate semialdehyde, 10 mM MgCl2, 1 mM ATP and 1 mM NADPH. The enzyme activity assay reaction was initiated by adding purified carboxylate reductase and phosphopantetheine transferase or the empty vector control to the assay buffer containing the adipate semialdehyde and then incubated at room temperature for 20 min. The consumption of NADPH was monitored by absorbance at 340 nm.

[2] = β-ketothiolase activity, 4-hydroxybutyryl-CoA and acetyl-CoA to 3-oxo-6-hydroxyhexanoyl-CoA; assay type: biochemical; conditions: 5 μM enzyme and ChnC lactonase, 10 mM γ-butyrolactone, 5 mM acetyl-CoA, pH 6.8, 30° C., 3 hour
Procedure: A nucleotide sequence encoding a N-terminal His-tag was added to the gene from Clostridium aminobutyricum encoding the β-ketothiolase activity of SEQ ID NO: 14 (see FIG. 6) such that a N-terminal HIS tagged enzyme could be produced. The resulting modified gene was cloned into a pET15b expression vector under control of the T7 promoter and the expression vector was transformed into a BL21[DE3] E. coli host. The resulting recombinant E. coli strain was cultivated at 37° C. in a 1 L shake flask culture containing 350 mL LB media and ampicillin antibiotic selection pressure, with shaking at 230 rpm. Each culture was induced overnight at 25° C. using 1 mM IPTG.
The pellet from each induced shake flask culture was harvested via centrifugation. Each pellet was resuspended and lysed via sonication. The cell debris was separated from the supernatant via centrifugation. The enzyme was purified from the supernatant using Ni-affinity chromatography, buffer exchanged and concentrated into 50 mM potassium phosphate buffer (pH=6.8) via ultrafiltration.
Enzyme activity assays converting 4-hydroxybutyryl-CoA and acetyl-CoA to 3-oxo-6-hydroxyhexanoyl-CoA were performed in triplicate in a buffer composed of a final concentration of 50 mM potassium phosphate buffer (pH=6.8), 75 μM ZnCl2, 10 mM γ-butyrolactone and 5 mM acetyl-CoA. […] The formation of 3-oxo-6-hydroxyhexanoyl-CoA was determined via LC-MS.

B1: SEQ ID NO 6: Segniliparus rotundus carboxylate reductase, Genbank Accession No. ADG98140.1, N-terminal His-tagged (protein, listed as Segniliparus rotundus)
chain: MTQSHTQGPQASAAHSRLARRAAELLATDPQAAATLPDPEVVRQATRPGLRLAERVDAILSGYADRPALGQRSFQTVKDPITGRSSVELLPTFDTITYRELRERATAIASDLAHHPQAPAKPGDFLASIGFISVDYVAIDIAGVFAGLTAVPLQTGATLATLTAITAETAPTLFAASIEHLPTAVDAVLATPSVRRLLVFDYRAGSDEDREAVEAAKRKIADAGSSVLVDVLDEVIARGKSAPKAPLPPATDAGDDSLSLLIYTSGSTGTPKGAMYPERNVAHFWGGVWAAAFDEDAAPPVPAINITFLPLSHVASRLSLMPTLARGGLMHFVAKSDLSTLFEDLKLARPTNLFLVPRVVEMLYQHYQSELDRRGVQDGTREAEAVKDDLRTGLLGGRILTAGFGSAPLSAELAGFIESLLQIHLVDGYGSTEAGPVWRDGYLVKPPVTDYKLIDVPELGYFSTDSPHPRGELAIKTQTILPGYYKRPETTAEVFDEDGFYLTGDVVAQIGPEQFAYVDRRKNVLKLSQGEFVTLAKLEAAYSSSPLVRQLFVYGSSERSYLLAVIVPTPDALKKFGVGEAAKAALGESLQKIARDEGLQSYEVPRDFIIETDPFTVENGLLSDARKSLRPKLKEHYGERLEAMYKELADGQANELRDIRRGVQQRPTLETVRRAAAAMLGASAAEIKPDAHFTDLGGDSLSALTFSNFLHDLFEVDVPVGVIVSAANTLGSVAEHIDAQLAGGRARPTFATVHGKGSTTIKASDLTLDKFIDEQTLEAAKHLPKPADPPRTVLLTGANGWLGRFLALEWLERLAPAGGKLITIVRGKDAAQAKARLDAAYESGDPKLAGHYQDLAATTLEVLAGDFSEPRLGLDEATWNRLADEVDFISHPGALVNHVLPYNQLFGPNVAGVAEIIKLAITTRIKPVTYLSTVAVAAGVEPSALDEDGDIRTVSAERSVDEGYANGYGNSKWGGEVLLREAHDRTGLPVRVFRSDMILAHQKYTGQVNATDQFTRLVQSLLATGLAPKSFYELDAQGNRQRAHYDGIPVDFTAESITTLGGDGLEGYRSYNVFNPHRDGVGLDEFVDWLIEAGHPITRIDDYDQWLSRFETSLRGLPESKRQASVLPLLHAFARPGPAVDGSPFRNTVFRTDVQKAKIGAEHDIPHLGKALVLKYADDIKQLGLL
modifications: N-terminal His tag
In the case of B1, the “acceptance of adipate semialdehyde as substrate (NADPH consumption, absorbance at 340 nm, vs empty vector control)” value [1] is reported as “accepted adipate semialdehyde as substrate”.

B2: SEQ ID NO 14: Clostridium aminobutyricum CoA-transferase, GenBank Accession No. CAB60036.2, with β-ketothiolase activity, N-terminal His-tagged (protein, listed as Clostridium aminobutyricum)
chain: MDWKKIYEDRTCTADEAVKSIKSGDRVLFAHCVAEPPVLVEAMVANAAAYKNVTVSHMVTLGKGEYSKPEYKENFTFEGWFTSPSTRGSIAEGHGQFVPVFFHEVPSLIRKDIFHVDVFMVMVSPPDHNGFCCVGVSSDYTMQAIKSAKIVLAEVNDQVPVVYGDTFVHVSEIDKFVETSHPLPEIGLPKIGEVEAAIGKHCASLIEDGSTLQLGIGAIPDAVLSQLKDKKHLGIHSEMISDGVVDLYEAGVIDCSQKSIDKGKMAITFLMGTKRLYDFAANNPKVELKPVDYINHPSVVAQCSKMVCINACLQVDFMGQIVSDSIGTKQFSGVGGQVDFVRGASMSIDGKGKAIIAMPSVAKKKDGSMISKIVPFIDHGAAVTTSRNDADYVVTEYGIAEMKGKSLQDRARALINIAHPDFKDELKAEFEKRFNAAF
modifications: N-terminal His tag
For B2, the “acceptance of 4-hydroxybutyryl-CoA and acetyl-CoA as substrates, formation of 3-oxo-6-hydroxyhexanoyl-CoA (LC-MS)” value [2] was “accepted 4-hydroxybutyryl-CoA and acetyl-CoA as substrates”.
